From patent US7888291B2, “Substrates and assays for β-secretase” (Elan Pharmaceuticals, Inc., priority 2000, dated 2011)
Entries after “also recorded” stand apart in the source; their conditions may differ. Marks after values point to notes of the source that are not given here. Non-standard residues stand in square brackets, D forms with d. No end group written: not given here. Nle = CCCC[C@H](N)C(=O)O; SO3‑ = not defined here

Legend:
Hu-Asp2 [1] = molecular target: T1, Hu-Asp2 (Homo sapiens, UniProt P56817); experiment: Hu-Asp2 peptide substrate cleavage assay (HPLC quantitation of cleavage products); type: biochemical; parameters: key to Activity: Those substrates that were not cleaved by the Hu-Asp2 are indicated by a “−” sign; substrates that produced activity are indicated by “+” signs in which the greater the activity, the more + signs are provided; ++: substrates that produced activity are indicated by “+” signs in which the greater the activity, the more + signs are provided; ++++: substrates that produced activity are indicated by “+” signs in which the greater the activity, the more + signs are provided; details: for Activity: 200 μM test substrate, 210 nM Hu-Asp2 enzyme, pH 4.5, 37° C., 3 hours
T1 construct: made in house; host or cells: High Five insect cells
Method: The peptides listed in Table 2 were designed, synthesized, and tested for activity as substrates for Hu-Asp2. 200 μM of each test substrate was incubated with 210 nM Hu-Asp2 enzyme at pH 4.5 at 37° C. for 3 hours. Of course it should be understood that these are merely exemplary assay conditions, and those of skill in the art will be able to vary these conditions and yet still provide appropriate Hu-Asp2 activity. For example, it is envisioned that the assays may be conducted at a pH range of from between about 4.0 to about 7.0. The amount of enzyme added to a given reaction mixture may also be varied and those of skill in the art will be able to perform assays defining the optimal enzyme concentrations necessary for a given assay, as such 150 nm; 200 nm; 250 nm; 300 nm or more or less enzyme may be added. Substrate concentration in those also may be varied such that an assay may use 100, 150 μM, 200 μM, 250 μM, 300 μM, 350 μM or more or less of any given; substrate. It may be that one substrate produces an optimum activity at one concentration whereas another substrate is needed to be present at a different concentration to produce an optimum cleavage rate. However, such optimizations of enzyme assay conditions is well within the skill of those in the art and will not require undue experimentation.
In an exemplary assay to determine the cleavage of the substrates of the present invention, Asp2 was prepared from High Five™ insect cells. Generally, the assasy are run in solution at acidic pH (4.0 to 5.0), at 25-37° C. in the presence of nM or sub-nanomolar enzyme. After a suitable period of incubation the reaction is stopped at a desired time by addition of 4% trifluoracetic acid (TFA). Substrates and products are separated using reverse phase HPLC. The disappearance of the substrates and the appearance of the products are monitored by continuous measurement of the absorbance of the effluent at […]. Furthermore, if the peptide comprises a tryptophan residue, the monitoring may additionally or alternatively involve continuous monitoring of fluorescence of tryptophan fluorescence (excitation at 280 nm, emission at […]) of the effluent.
In a typical assay, 210 nM enzyme and 200 μM substrate were incubated in 0.2 M sodium acetate at pH 4.5 in 100 μl volume at 37° C. for 1 to 3 hours. The assay was stopped by the addition of 50 μl 4% TFA to lower the pH below the active range of the enzyme. Subsequently, 100 μl of this mixture was injected into a Hewlett Packard Model 1090 HPLC equipped with a Vydac column (4.6 mm i.d.×150 mm, 5 μm) pre-equilibrated with 95% A (0.15% TFA in water), 5% B (0.15% TFA in acetonitrile). The constituents were then eluted from the column with the following linear gradients: 0-15 min: 5-50% B; 15-17 min: 50-100% B; 17-20 min: 100-5% B; 20-22 min: 5% B). The cleavage products were then quantitated using an enhanced integrator. […]

Hu-Asp2 [2] = molecular target: T1, Hu-Asp2; experiment: as above; type: biochemical; details: for activity / rate of hydrolysis by Asp2 over wild type peptide (SEQ ID NO:20): Tables 3 and 4
[3] = Table 5, 2 nM enzyme, 50 μM substrate, 25 mM Sodium acetate, pH 4.4, 37° C., 2 hr
[4] = Table 5, 2 nM enzyme, 50 μM substrate, 25 mM Sodium acetate, pH 4.4, 37° C., 2 hr, SEQ ID NO:141 = 100
[5] = Table 3, 200 nM enzyme, 200 μM substrate, 300 mM Na-acetate, 4% DMSO, pH 4.5, 37° C., 4 hr, APP-Sw = 100
[6] = Table 4, 200 nM enzyme, 200 μM substrate, pH 4.5, 37° C., 1 hr, SEQ ID NO:19 = 100

T1 sequence (P56817 46-501): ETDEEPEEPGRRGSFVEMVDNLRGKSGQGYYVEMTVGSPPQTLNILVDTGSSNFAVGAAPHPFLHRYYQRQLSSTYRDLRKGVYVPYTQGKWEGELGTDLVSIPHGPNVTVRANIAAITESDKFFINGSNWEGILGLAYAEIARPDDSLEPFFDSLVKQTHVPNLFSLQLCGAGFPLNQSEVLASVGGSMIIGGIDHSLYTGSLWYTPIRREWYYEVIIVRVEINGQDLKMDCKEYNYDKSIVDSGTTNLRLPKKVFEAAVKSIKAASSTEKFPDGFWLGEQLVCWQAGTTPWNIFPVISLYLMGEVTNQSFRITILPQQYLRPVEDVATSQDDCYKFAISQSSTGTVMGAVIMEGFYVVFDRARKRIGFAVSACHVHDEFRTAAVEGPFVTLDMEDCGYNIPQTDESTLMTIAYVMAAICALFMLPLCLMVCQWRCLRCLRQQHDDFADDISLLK

Biotin-KVEANY-EVEGERC(oregon green)KK
cleavage site (Hu-Asp2 [1]): between Tyr and Glu only
Vmax and Km compared with a previous biotinylated fluorescent substrate derived from the Swedish Mutant peptide (Hu-Asp2 [2]): at least twice better; also recorded: at least double
cleavage after 15 minutes (Hu-Asp2 [2]; 200 mM sodium acetate, pH 4.5, 10 μM substrate, 50 nM enzyme, 37° C., 15 minutes): 20%
cleavage after 30 minutes (Hu-Asp2 [2]; 200 mM sodium acetate, pH 4.5, 10 μM substrate, 50 nM enzyme, 37° C., 30 minutes): 37%
cleavage after 60 minutes (Hu-Asp2 [2]; 200 mM sodium acetate, pH 4.5, 10 μM substrate, 50 nM enzyme, 37° C., 60 minutes): 57%
cleavage after 120 minutes (Hu-Asp2 [2]; 200 mM sodium acetate, pH 4.5, 10 μM substrate, 50 nM enzyme, 37° C., 120 minutes): 82%

KTEEISEVSY-EVEFR (KTEEISEVSYEVEFR)
rate of cleavage / activity over SEVSY-EVEFR (SEQ ID NO:141) (Hu-Asp2 [2]): 3.6 fold
Cleavage Activity (Hu-Asp2 [2]; [3]): 0.58 µmol/min/mg
Relative rate of Cleavage (Hu-Asp2 [2]; [4]): 360

KTINL-↓-EVEPS (KTINLEVEPS) [Peptide 2]
activity as substrate of Hu-Asp2 (in words) (Hu-Asp2 [1]): activity similar to that of the Swedish mutant
Relative rate of Cleavage (Hu-Asp2 [2]; [5]): 92.0

KTINnle-↓-DVDPS (KTIN[Nle]DVDPS) [Peptide 5]
reduction of activity compared with peptide #3 (SEQ ID NO:134) (Hu-Asp2 [2]; Table 3): about 10 fold
Relative rate of Cleavage (Hu-Asp2 [2]; [5]): 12.2

KTINnle-↓-EVDPS (KTIN[Nle]EVDPS) [Peptide 4]
activity as substrate of Hu-Asp2 (in words) (Hu-Asp2 [1]): very well tolerated
Relative rate of Cleavage (Hu-Asp2 [2]; [5]): 93.6

KTINnle-↓-EVEPS (KTIN[Nle]EVEPS) [Peptide 3]
activity as substrate of Hu-Asp2 (in words) (Hu-Asp2 [1]): activity similar to that of the Swedish mutation
Relative rate of Cleavage (Hu-Asp2 [2]; [5]): 92.6

KTISL- ↓-DVDPS (KTISLDVDPS) [Peptide 7]
activity as substrate of Hu-Asp2 (in words) (Hu-Asp2 [1]): activity dropped substantially
Relative rate of Cleavage (Hu-Asp2 [2]; [5]): 20.5

KTISL- ↓-DVEPS (KTISLDVEPS) [Peptide 6]
activity as percentage of the Swedish mutation peptide (SEQ ID NO:19) (Hu-Asp2 [2]; Table 3): 69%
Relative rate of Cleavage (Hu-Asp2 [2]; [5]): 69.0
activity / rate of hydrolysis by Asp2 over wild type peptide (SEQ ID NO:20) (Hu-Asp2 [2]): about 35 fold

KTITL-↓-EVEPS (KTITLEVEPS) [Ubiquitin (Pep 1)]
activity as percentage of the Swedish mutation peptide (SEQ ID NO:19) (Hu-Asp2 [2]; Table 3): about 13%
Relative rate of Cleavage (Hu-Asp2 [2]; [5]): 13.1
activity / rate of hydrolysis by Asp2 over wild type peptide (SEQ ID NO:20) (Hu-Asp2 [2]): six times better than wild type peptide

KVEALY-AVEGERKK (KVEALYAVEGERKK)
Activity (Hu-Asp2 [1]): +

KVEALY-LV(SO3-)GER (KVEALYLV[SO3‑]GER; reading uncertain; also: sulfonated residue, parent residue not given here, printed as KVEALY-LV(SO3-)GER)
Activity (Hu-Asp2 [1]): −

KVEANL-AVEGERKK (KVEANLAVEGERKK)
Activity (Hu-Asp2 [1]): +

KVEANY-AVEGERKK (KVEANYAVEGERKK)
Activity (Hu-Asp2 [1]): ++++

KVEANY-DVEGERKK (KVEANYDVEGERKK)
Activity (Hu-Asp2 [1]): +

KVEANY-EVEGERCKK (KVEANYEVEGERCKK)
activity as substrate of Hu-Asp2 (in words) (Hu-Asp2 [1]): good substrate for Hu-Asp2

KVEANY-EVEGERKK (KVEANYEVEGERKK)
activity as substrate of Hu-Asp2 (in words) (Hu-Asp2 [1]): good substrate for Hu-Asp
Activity (Hu-Asp2 [1]): ++++

KVEANY-LVEGERKK (KVEANYLVEGERKK)
Activity (Hu-Asp2 [1]): +

SEIDY-EVEFR (SEIDYEVEFR)
Cleavage Activity (Hu-Asp2 [2]; [3]): 0.69 µmol/min/mg
Relative rate of Cleavage (Hu-Asp2 [2]; [4]): 430

SEISY-EVEFR (SEISYEVEFR)
rate of cleavage / activity over SEVSY-EVEFR (SEQ ID NO:141) (Hu-Asp2 [2]): 5 fold
Cleavage Activity (Hu-Asp2 [2]; [3]): 0.80 µmol/min/mg
Relative rate of Cleavage (Hu-Asp2 [2]; [4]): 500

SEVDY-EVEFR (SEVDYEVEFR)
Cleavage Activity (Hu-Asp2 [2]; [3]): 0.38 µmol/min/mg
Relative rate of Cleavage (Hu-Asp2 [2]; [4]): 240

SEVKM-DAEFR (SEVKMDAEFR) [APP-Wildtype, reference compound]
Relative rate of Cleavage (Hu-Asp2 [2]; Table 3, 200 nM enzyme, 200 μM substrate, 300 mM Na-acetate, 4% DMSO, pH 4.5, 37° C., 24 hr reaction): 2.1*
Relative rate of Cleavage (Hu-Asp2 [2]; Table 4, 200 nM enzyme, 200 μM substrate, pH 4.5, 37° C., 24 hr reaction): 2.1*

SEVNL-DAEFR (SEVNLDAEFR) [APP-Sw, reference compound]
Relative rate of Cleavage (Hu-Asp2 [2]; [5]): 100
Relative rate of Cleavage (Hu-Asp2 [2]; [6]): 100.0

SEVNY-↓-EVEFR (SEVNYEVEFR)
activity as fraction of that of SEVSY-EVEFR (SEQ ID NO:141) (Hu-Asp2 [2]; peptide activity assays): ⅕

SEVSY-↓-DAEFR (SEVSYDAEFR)
activity compared with Swedish mutant peptide (SEQ ID NO:19) (Hu-Asp2 [2]; Table 4): about five times less than that of the Swedish mutation
Relative rate of Cleavage (Hu-Asp2 [2]; [6]): 18.3
activity / rate of hydrolysis by Asp2 over wild type peptide (SEQ ID NO:20) (Hu-Asp2 [2]): about 9 fold

SEVSY-↓-EAEFR (SEVSYEAEFR)
activity as substrate of Hu-Asp2 (in words) (Hu-Asp2 [1]): activity comparable to the Swedish mutation; also recorded: activity comparable to that of the Swedish mutant
Relative rate of Cleavage (Hu-Asp2 [2]; [6]): 77.1

TEIDY-EVEFR (TEIDYEVEFR)
Cleavage Activity (Hu-Asp2 [2]; [3]): 0.62 µmol/min/mg
Relative rate of Cleavage (Hu-Asp2 [2]; [4]): 390

TEVDY-EVEFR (TEVDYEVEFR)
Cleavage Activity (Hu-Asp2 [2]; [3]): 0.37 µmol/min/mg
Relative rate of Cleavage (Hu-Asp2 [2]; [4]): 230

TEVSY-EVEFR (TEVSYEVEFR)
Cleavage Activity (Hu-Asp2 [2]; [3]): 0.27 µmol/min/mg
Relative rate of Cleavage (Hu-Asp2 [2]; [4]): 160

TRPGSGLTNIKTEEISEVSY-EVEFR (TRPGSGLTNIKTEEISEVSYEVEFR)
rate of cleavage / activity over SEVSY-EVEFR (SEQ ID NO:141) (Hu-Asp2 [2]): 8.4 fold
Cleavage Activity (Hu-Asp2 [2]; [3]): 1.35 µmol/min/mg
Relative rate of Cleavage (Hu-Asp2 [2]; [4]): 840

VEALY-LVEGER (VEALYLVEGER)
activity as substrate of Hu-Asp2 (in words) (Hu-Asp2 [1]): found to be cleaved by the Hu-Asp2

WRRVEALY-LVEGERK (WRRVEALYLVEGERK)
Activity (Hu-Asp2 [1]): ++
